Measured values published in patent publication US7169567B1, “Screening assay utilizing the PTH receptor” (The General Hospital Corporation, priority 1998, dated 2007).
Where no end group is shown, it is not given here.

Tests used:
[1] = target: T1, intact rat PTH-1 receptor (rWT-HA) (Rattus norvegicus, UniProt P25961); assay: cAMP response in COS-7 cells transiently transfected with intact rat PTH-1 receptor (rWT-HA); type: cell-based; details: COS-7 cells expressing rWT-HA
T1 construct: expressed in transfected cells; host or cells: COS-7, transient (DEAE-dextran), pCDNA-1 based plasmid
T1 sequence (P25961 23-591 E93Y/N94P/K95Y/T99D/G100Y/S101A limits assumed): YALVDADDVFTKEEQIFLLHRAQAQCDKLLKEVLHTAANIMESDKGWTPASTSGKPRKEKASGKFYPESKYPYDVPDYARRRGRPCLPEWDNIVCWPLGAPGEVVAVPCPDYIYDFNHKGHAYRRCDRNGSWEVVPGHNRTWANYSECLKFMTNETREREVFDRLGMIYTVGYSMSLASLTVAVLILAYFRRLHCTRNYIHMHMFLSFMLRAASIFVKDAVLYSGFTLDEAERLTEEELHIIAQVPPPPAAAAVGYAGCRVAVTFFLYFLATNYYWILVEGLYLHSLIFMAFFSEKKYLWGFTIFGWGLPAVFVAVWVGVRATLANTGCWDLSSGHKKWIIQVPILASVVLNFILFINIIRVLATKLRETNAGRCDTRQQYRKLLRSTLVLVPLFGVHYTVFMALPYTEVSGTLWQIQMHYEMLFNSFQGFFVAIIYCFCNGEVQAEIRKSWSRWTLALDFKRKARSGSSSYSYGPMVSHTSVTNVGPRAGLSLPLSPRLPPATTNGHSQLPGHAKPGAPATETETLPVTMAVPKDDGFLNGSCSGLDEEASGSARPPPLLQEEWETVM
Description: FIG. 4. PTH Responses of Intact and Truncated PTH-1 Receptors in COS-7 Cells. Shown at the top are schematics of the intact (A) and truncated (B) rat PTH-1 receptors used for transient transfection of COS-7 cells, and subsequent cAMP response assays. The conserved extracellular cysteine residues are depicted as open circles and numbered according to sequence position, and the nine amino acids of the epitope tag (HA) in rWT-HA are shaded. The tics at residue 26 and 181 indicate the endpoints of the deletion in rΔNt. Based on the predicted signal peptide cleavage site at Ala-22, residues 23–25 in rΔNt are joined to residue 182. The cAMP responses of COS-7 cells expressing the intact receptor (C) and rΔNt (D) to rPTH(1–34) (J) or rPTH(1–14) (C) are also shown. The graphs show combined data (mean±s.e.m.) from five separate experiments, each performed in duplicate.
FIG. 5. Alanine-scan of PTH(1–14) with Intact and Truncated PTH Receptors. COS-7 cells transiently transfected with rWT-HA (A) or rCE I-G (B) were treated with 100 mM of native rat PTH(1–14) or 100 mM of a rPTH(1–14) analog containing a single alanine substitution for 1 h at 21° C., and the resulting intracellular cAMP levels were measured by RIA. The amino acid substitutions are indicated on the axis labels. Peptides were tested in duplicate, and a single experiment representative of three others is shown. […]

[2] = tested on: PTH-1 receptor (intact or truncated receptors used in this study); assay: Competition and direct binding assays (radioiodinated rPTH(1–34) tracer or radiolabeled PTH(1–14) analog); details: unlabeled peptide; radioiodinated rPTH(1–34) as tracer ligand; data not shown
Description: This reduced potency is not surprising, given that the PTH(1–14) peptide lacks important receptor-binding residues located in the PTH(15–34) region in the PTH(15–34) domain (Nussbaum, S. R., et al., J. Biol. Chem. 255:10183–10187 (1980); Gardella, T. J., et al., Endrocrinology 132(5):2024–2030 (1993); Caulfield, M. P., et al., Endocrinology 127:83–87 (1990); and Abou-Samra, A.-B., et al., Endocrinology 125:2215–2217 (1989)).

In the case of “PTH(1–14): Amino-terminal peptide fragment based on the rat PTH sequence, residues 1–14, C-terminally amidated (AVSEIQLMHNLGKH-NH2)”, the “potency relative to PTH(1–34) with rWT-HA” value [1] is reported as “four to five orders of magnitude weaker” and the “binding in standard competition binding assays” value [2] is reported as “bound too weakly to permit detection”.
